Measurements: PMC4604765, “Eye drop delivery of pigment epithelium-derived factor-34 promotes retinal ganglion cell neuroprotection and axon regeneration” (Molecular and Cellular Neurosciences, 2015)
Read-outs that look alike come from different tables or passages of the source.

How the values were obtained:
[1] = rat, in vivo; cited from earlier work
From the text: Drug administration to the retina and vitreous body is challenging. Drugs applied to the surface of the eye rarely penetrate the ocular surface or enter into the vitreous body and the retina ([Gaudana et al., 2010]). Biological barriers such as the cornea, conjunctiva and the tear film limit penetration and bioavailability of topical drug preparations to the posterior segment of the eye and therefore direct injection of drugs to the vitreous is commonly used to target drugs to the retina ([Ayalasomayajula and Kompella, 2005; Carneiro et al., 2009; Eldaly and Styles, 2009; Yasukawa et al., 2001 ...

[2] = tested on: βIII-tubulin+ retinal neurons; conditions: CNTF 440.5 pM, 4 days in culture
From the text: For all in vitro experiments, adult 6–8-week-old female Sprague–Dawley rats weighing 170–220 g were used. Culture experiments included retinal cells treated with: (1), Neurobasal-A (NBA) alone (Control); and equimolar concentrations of (2), 2.16; (3) 5.4; (4), 10.8 and (5), 21.6 pM PEDF-34/-44; and (6), ciliary neurotrophic factor (CNTF: Peprotech, London, UK), as a positive control at an optimal neuroprotective/axogenic concentration of 440.5 pM, established by us previously ([Ahmed et al., 2009; Douglas et al., 2009]). […] All experiments were performed in triplicate and repeated on three independent occasions.
Mixed adult rat retinal cultures containing enriched populations of retinal neurons, including RGCs, were prepared from 6–8-week-old adult female Sprague–Dawley rats, as described previously ([Ahmed et al., 2006b, 2009, 2010; Douglas et al., 2009; Vigneswara et al., 2013]). Briefly, retinal cells were dissociated using a Papain dissociation kit according to the manufacturer's instructions (Worthington Biochemicals, Lakewood, NJ, USA). […]
The mean number of βIII-tubulin^+ neurons surviving, with neurites and the mean neurite length were quantified as described by us previously ([Vigneswara et al., 2013, 2014]). Briefly, chamber slides were anonymised by a second investigator and βIII-tubulin^+ neuronal soma and neurites quantified in 9 quadrants/well using Axiovision software (Version 4.8; Zeiss) and ImagePro (Version 6.3; Media Cybernetics, Bethesda, MD, USA). Of the 125,000 cells/well plated, the total numbers of neurons in each experiment were determined by βIII-tubulin^+ immunocytochemistry after allowing 30 min for cells to adhere to glass culture slides. […] Neurite outgrowth from at least 180 neurons/condition from the 9 wells was measured, except in control (NBA) cultures, in which a total of 108 neurons were measured.

[3] = tested on: RGC axons; conditions: administration of CNTF after ONC; ref Vigneswara et al., 2013; cited from earlier work
[4] = tested on: RGC; conditions: intravitreal injections, ref Cheng et al., 2002, Kermer et al., 1998, Kurokawa et al., 1999, Monnier et al., 2011, Parrilla-Reverter et al., 2009, cited from earlier work
From the text: Other commonly used retinal neuron/RGC neuroprotective factors include BDNF, glial-derived neurotrophic factor (GDNF), neurotrophin (NT)-3, NT-4/5, as well as caspase inhibitors ([Cheng et al., 2002; Kermer et al., 1998; Kurokawa et al., 1999; Monnier et al., 2011; Parrilla-Reverter et al., 2009]). Although intravitreal injections of BDNF protect 100% of RGC for 7 days, efficiency declines to 60% by 21 days. Most neuroprotective strategies tested support the survival of a maximum of 60% of RGC at 2 weeks after injury ([Cheng et al., 2002; Kermer et al., 1998; Kurokawa et al., 1999; Monnier et ...

[5] = tested on: retinal ganglion cells (RGCs); conditions: intravitreal delivery at 0, 7 and 14 days after ONC, equimolar concentrations, 21 days after ONC; ref Vigneswara et al., 2013; cited from earlier work
Procedure: Here we wished to confirm that, in vivo, PEDF-34 was more neuroprotective than full length PEDF. After intravitreal injection of vehicle + 0 nM PEDF-34, 295 ± 15 FG^+ RGC/mm^2 survived 21 days after ONC + PBS (0 nM PEDF-34) (Fig. 2A and B). Increasing the dose of ...

Molecule: ^125I-labelled nerve growth factor: 125I-labelled nerve growth factor (26 kDa)
- time of peak accumulation in the retina and optic nerve [1]: 6 h

B1: CNTF: ciliary neurotrophic factor (Peprotech), positive control at 440.5 pM (protein, UniProt P26441 1-200, looked up)
Ciliary neurotrophic factor: MAFTEHSPLTPHRRDLCSRSIWLARKIRSDLTALTESYVKHQGLNKNINLDSADGMPVASTDQWSELTEAERLQENLQAYRTFHVLLARLLEDQQVHFTPTEGDFHQAIHTLLLQVAAFAYQIEELMILLEYKIPRNEADGMPINVGDGGLFEKKLWGLKVLQELSQWTVRSIHDLRFISSHQTGIPARGSHYIANNKKM
- fold increase in βIII-tubulin+ neuron survival compared to untreated cultures [2]: 1.9 fold
- RGC axon regeneration after ONC [3]: limited RGC axon regeneration

B2: BDNF: brain-derived neurotrophic factor (protein, UniProt P23560 19-247, looked up)
Neurotrophic factor BDNF …: APMKEANIRGQGGLAYPGVRTHGTLESVNGPKAGSRGLTSLADTFEHVIEELLDEDQKVRPNEENNKDADLYTSRVMLSSQVPLEPPLLFLLEEYKNYLDAANMSMRVRRHSDPARRGELSVCDSISEWVTAADKKTAVDMSGGTVTVLEKVPVSKGQLKQYFYETKCNPMGYTKEGCRGIDKRHWNSQCRTTQSYVRALTMDSKKRIGWRFIRIDTSCVCTLTIKRGR
- RGC protected ([4]; 7 days): 100%
- RGC protected ([4]; by 21 days): 60%

B3: full length PEDF: 50 kDa neurotrophic factor, member of the serpin superfamily (protein, UniProt P36955 1-418, looked up)
chain: MQALVLLLCIGALLGHSSCQNPASPPEEGSPDPDSTGALVEEEDPFFKVPVNKLAAAVSNFGYDLYRVRSSTSPTTNVLLSPLSVATALSALSLGAEQRTESIIHRALYYDLISSPDIHGTYKELLDTVTAPQKNLKSASRIVFEKKLRIKSSFVAPLEKSYGTRPRVLTGNPRLDLQEINNWVQAQMKGKLARSTKEIPDEISILLLGVAHFKGQWVTKFDSRKTSLEDFYLDEERTVRVPMMSDPKAVLRYGLDSDLSCKIAQLPLTGSMSIIFFLPLKVTQNLTLIEESLTSEFIHDIDRELKTVQAVLTVPKLKLSYEGEVTKSLQEMKLQSLFDSPDFSKITGKPIKLTQVEHRAGFEWNEDGAGTTPSPGLQPAHLTFPLDYHLNQPFIFVLRDTDTGALLFIGKILDPRGP
modifications: full-length
notes: 50 kDa neurotrophic factor, member of the serpin superfamily
- survival of RGCs from death [5]: 55%
